Data: patent US20080124811A1

Legend:
[1] = substrate: T1, BNP single alanine substituted peptide, R13 to alanine (human); assay: BIAcore SPR, AM1 captured on goat anti-human Fc, peptide at 10 nM, 1800 s dissociation
T1 sequence (peptide, cyclic hBNP 1-32): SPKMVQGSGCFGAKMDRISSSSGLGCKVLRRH

[2] = substrate: T2, BNP single alanine substituted peptide, F11 to alanine (human); assay: as above
T2 sequence (peptide, cyclic hBNP 1-32): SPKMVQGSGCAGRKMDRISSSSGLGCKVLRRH

fold increase in off-rate against WT BNP [1]: > 10 fold
fold increase in off-rate against WT BNP [2]: > 10 fold
B1: 106.3 AM1 chimeric antibody (antibody, V domains shown)
VH: QIQLVQSGPELRKPGETVKISCKGSGYTFTHYGINWVKQTPRKDLKWMGWINTHTGEAYYADDFKGRFAFSLETSANTAYLQINNLNNGDMGTYFCTRSHRFGLDYWGQGTSVTVSS
VL: DNVLTQSPPSLAVSLGQRATISCKANWPVDYNGDSYLNWYQQKPGQPPKFLIYAASNLESGIPARFSGSGSGTDFNLNIHPVEEEDAATYYCQQSNEDPFTFGSGTKLEIK
modifications: Conjugated to acridinium or biotinylated in the sandwich assays (Examples 4 and 7); the sites are not defined.
